Assay results as given in publication PMC5360590 (EBioMedicine, 2017).

Key:
[1] = target: HA of A/gull/Maryland/704/77 (H13), expressed in cells from pCAGGS (Influenza A virus …, UniProt P13103, strain); experiment: immunostaining of cells or tissue
[2] = target: HA of A/mallard/Astrakhan/263/82 (H14), expressed in cells from pCAGGS (Influenza A virus …, UniProt P26136, strain); experiment: immunostaining of cells or tissue
[3] = target: HA of A/turkey/Ontario/6118/68 (H8), expressed in cells from pCAGGS (Influenza A virus …, UniProt P03456, strain); experiment: immunostaining of cells or tissue
[4] = target: HA of A/Singapore/1/57 (H2), expressed in cells from pCAGGS (Influenza A virus A/Singapore/1/1957 …, UniProt Q67333, strain); experiment: immunostaining of cells or tissue
[5] = target: HA of A/duck/Czechoslovakia/56 (H4), expressed in cells from pCAGGS (Influenza A virus …, UniProt P19696, strain); experiment: immunostaining of cells or tissue
[6] = target: HA of A/chicken/Germany/N/49 (H10), expressed in cells from pCAGGS (Influenza A virus …, UniProt P12581, strain); experiment: immunostaining of cells or tissue
[7] = target: HA of A/duck/Australia/341/83 (H15), expressed in cells from pCAGGS (Influenza A virus …, UniProt Q82565, strain); experiment: immunostaining of cells or tissue
[8] = target: HA of A/duck/Memphis/546/74 (H11), expressed in cells from pCAGGS (Influenza A virus …, UniProt Q0A426, strain); experiment: immunostaining of cells or tissue
[9] = target: HA of A/turkey/Wisconsin/66 (H9), expressed in cells from pCAGGS (Influenza A virus …, UniProt P03457, strain); experiment: immunostaining of cells or tissue
[10] = target: HA of A/California/04/2009 (CA04; H1N1pdm09) on virus particles (Influenza A virus A/California/04/2009 …, UniProt C3W5S1, strain); experiment: BLI
[11] = target: Recombinant soluble HA of subtype H1 (A/California/07/2009, H1N1pdm09) (Influenza A virus A/California/07/2009 …, UniProt C3W5X2, strain); experiment: BLI
[12] = target: Recombinant soluble HA of subtype H7 (A/Netherland/219/2003, H7N7) (Influenza A virus …, UniProt Q6VMK1); experiment: BLI
[13] = target: Recombinant soluble HA of subtype H3 (A/Perth/16/2009, H3N2) (Influenza A virus A/Perth/16/2009 (H3N2), UniProt C6KNH7, strain); experiment: BLI

B1: S9-1-10/5-1, recombinant monoclonal human IgG (IgG1, kappa) (antibody, V domains shown)
VH: QLHLQESGPGLLKPSATLSLTCTVSGGSMNNYYWSWVRQAPGKGLEWIGYIFHSGSTNYSPPLKSRVTISIDTATNQFFLRLNSVTAADTAVYYCARMSRGVFSSSRFFGLDVWGRGTAVAVSS
VL: EIVLTQSPATLSVSPGERATLSCRASQSVASNLAWYQQKPGQAPRLLISAASTRATDIPARFSGSGSGTEFTLTISSLQSEDFAVYYCQQYNNWLSFTFGPGTKVDMK
- binding result [1]: binds
- binding result [2]: binds
- binding result [3]: binds
- binding result [4]: binds
- binding result [5]: binds
- binding result [6]: binds
- binding result [7]: binds
- binding result [8]: binds
- binding result [9]: binds
- binding result [10]: binds
- Kd [11]: 8.5 pM
- koff [11]: 6.7e-06 s⁻¹
- kon [11]: 790000 M⁻¹ s⁻¹
- Kd [12]: 900 pM
- koff [12]: 0.00037 s⁻¹
- kon [12]: 410000 M⁻¹ s⁻¹
- Kd [13]: 34000 pM
- koff [13]: 0.002 s⁻¹
- kon [13]: 59000 M⁻¹ s⁻¹
